The source of these data is patent publication US20240360223A1 (DRAGONFLY THERAPEUTICS, published 2024).

Assay [1] addresses T1, human BAFF-R expressed on cells (human, UniProt Q96RJ3 1-184).
T1 construct: Cell surface BAFF-R, endogenous on B cell lines and primary B cells or overexpressed on isogenic CHO cells; also called hBAFF-R; hBAFF-R-CHO
In words: told of the group of Table 17, reference AB0369; format not given.

The target in assay [2] is T1, human BAFF-R expressed on cells. In words: cell-based or functional assay.
Assay [3] has the same target. In words: flow cytometry, BAFF-R-CHO cells. For orientation: Flow cytometry measures light scatter and fluorescence of single cells or particles in a stream.
The target of assay [4] is T2, hBAFF-R-hFc-His fusion protein (human, UniProt Q96RJ3 1-78, biotinylated in the yeast display assays).
T2 construct: the whole entry is named; also called hBAFFR-Fc; biotinylated hBAFF-R-hFc-His
In words: yeast display flow cytometry after challenge: 100 pM hBAFFR-Fc biotin for 1hr at RT, then 1 mM nonbiotinylated hBAFFR-Fc (as printed on the sheet).

Assay [5] concerns the target T3, cynomolgus monkey BAFF-R expressed on cells (cynomolgus monkey).
T3 construct: whole, on cells; also called cBAFF-R; cynoBAFF-R
In words: flow cytometry, cyno BAFF-R CHO cells.

In assay [6] the target is T1, human BAFF-R expressed on cells. Briefly: flow cytometry, human BAFF-R CHO cells.
Assay [7] shares this target. Briefly: blocking of BAFF-biotin on BAFF-R CHO cells.
Assay [8] shares this target. In words: flow cytometry, hBAFF-R+ cells.

B1: AB0605 (bispecific antibody, V domains shown)
VH: EVQLVQSGGGVVQPGRSLRLSCAASGFTFSSYGMHWVRQAPGKCLEWVAVIWYDGSNKYYGDSVKGRFTISRDNSKNTLYLQMNSLRDEDTAVYYCARRFTMLRGQYIEDYGMDVWGQGTTVTVSS
VL: not shown
notes: also called AB0605-001
As usually defined, the EC50 is the concentration that produces a half-maximal response. For B1, the “fold improvement in BAFF-R binding against AB0369” value (“fold improvement in BAFF-R binding” for short) in assay [1] was greater than 3 fold. Moreover, in assay [2], the “KHYG-A-CD16Av mediated Cytolysis of Ramos cells EC50” value (“KHYG-A-CD16Av mediated Cytolysis” for short) was 0.15 nM. In assay [3], this molecule had an EC50 of 5.72 nM.

B2: AB1080scFv (scFv, V domains shown)
VH: EVQLVQSGGGVVQPGRSLRLSCAASGFTFSSYGMHWVRQAPGKCLEWVAVIWYDASNKYYGDSVKGRFTISRDNSKNTLYLQMNSLRDEDTAVYYCARRFTHLRGWYIEDYGLDVWGQGTTVTVSS
VL: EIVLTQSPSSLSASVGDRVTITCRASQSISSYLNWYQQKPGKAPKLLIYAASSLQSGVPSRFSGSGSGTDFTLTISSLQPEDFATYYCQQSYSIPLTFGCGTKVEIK
notes: scFv on yeast; also called AB1080 (yeast clone)
As for B2, the “Iana (percent of events in the drawn gate named Iana)” value in assay [4] came to 23.4.

B3: AB0606 (bispecific antibody, V domains shown)
VH: EVQLVQSGGGVVQPGRSLRLSCAASGFTFSSYGMHWVRQAPGKCLEWVAVIWYDGSNKYYGDSVKGRFTISRDNSKNTLYLQMNSLRDEDTAVYYCARRFTMLRGWYIEDYGMDVWGQGTTVTVSS
VL: not shown
notes: also called AB0606-001
For B3, the “fold improvement in BAFF-R binding” value in assay [1] is greater than 3 fold. For the same molecule, the “KHYG-A-CD16Av mediated Cytolysis” value in assay [2] was found to be 0.06 nM. In assay [3], it took 4.5 nM to reach a half-maximal effect (EC50).

B4: AB0679 (bispecific antibody, V domains shown)
VH: EVQLVQSGGGVVQPGRSLRLSCAASGFPFSSYGMHWVRQAPGKCLEWVAVIWYDGSNKYYGDSVKGRFTISRDNSKNTLYLQMNSLRDEDTAVYYCARRFTMLRGWYIEDYGMDVWGQGTTVTVSS
VL: not shown
notes: also called AB0679-001
Usually IC50 stands for the concentration that gives 50% inhibition. Take B4: the EC50 in assay [5] worked out at 2.6 nM; in assay [6], 2.3 nM. The same molecule yielded an IC50 in assay [7] of 9.4 nM.

B5: AB0682 (bispecific antibody, V domains shown)
VH: EVQLVQSGGGVVQPGRSLRLSCAASGFTFSSSGMHWVRQAPGKCLEWVAVIWYDGSNKYYGDSVKGRFTISRDNSKNTLYLQMNSLRDEDTAVYYCARRFTMLRGWYIEDYGMDVWGQGTTVTVSS
VL: not shown
notes: also called AB0682-001
B5: the EC50 turned out to be 3.1 nM in assay [5] and 2.4 nM in assay [6]. This molecule had an IC50 in assay [7] of 12.6 nM.

B6: AB1084scFv (scFv, V domains shown)
VH: EVQLVQSGGGVVQPGRSLRLSCAASGFTFSMYGMHWVRQAPGKCLEWVAVIWYDASNKYYGDSVKGRFTISRDNSKNTLYLQMNSLRDEDTAVYYCARRFTRLRGWYIEDYGLDVWGQGTTVTVSS
VL: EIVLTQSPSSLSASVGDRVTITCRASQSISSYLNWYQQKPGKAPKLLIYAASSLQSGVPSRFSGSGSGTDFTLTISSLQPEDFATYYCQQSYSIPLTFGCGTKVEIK
notes: scFv on yeast; also called AB1084 (yeast clone)
With B6, the “Iana (percent of events in the drawn gate named Iana)” value in assay [4] was determined as 7.4.

B7: AB0900 (bispecific antibody, V domains shown)
VH: EVQLVQSGGGVVQPGRSLRLSCAASGFTFSSSGMHWVRQAPGKCLEWVAVIWYDASNKYYGDSVKGRFTISRDNSKNTLYLQMNSLRDEDTAVYYCARRFTSLRGWYIEDYGLDVWGQGTTVTVSS
VL: not shown
With B7, in assay [8], the EC50 was determined as 11.7 nM.

B8: AB0899 (bispecific antibody, V domains shown)
VH: EVQLVQSGGGVVQPGRSLRLSCAASGFTFSSSGMHWVRQAPGKCLEWVAVIWYDASNKYYGDSVKGRFTISRDNSKNTLYLQMNSLRDEDTAVYYCARRFTYLRGWYIEDYGLDVWGQGTTVTVSS
VL: not shown
As for B8, a half-maximal response in assay [8] (EC50) required 4.3 nM.

B9: AB1081scFv (scFv, V domains shown)
VH: EVQLVQSGGGVVQPGRSLRLSCAASGFAFSSYGMHWVRQAPGKCLEWVAVIWYDESNKYYGDSVKGRFTISRDNSRNTLYLQMNSLRDEDTAVYYCARRFTNLRGWIIEDYGLDVWGQGTTVTVSS
VL: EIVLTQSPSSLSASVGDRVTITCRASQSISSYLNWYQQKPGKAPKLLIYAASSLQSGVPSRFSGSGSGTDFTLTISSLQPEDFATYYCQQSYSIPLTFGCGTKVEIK
notes: scFv on yeast; also called AB1081 (yeast clone)
On to B9, for which the “Iana (percent of events in the drawn gate named Iana)” value in assay [4] is 27.2.

B10: AB0622 (bispecific antibody, V domains shown)
VH: EVQLVQSGGGVVQPGRSLRLSCAASGFTFSSYGMHWVRQAPGKCLEWVAVIWYDGSNKYYGDSVKGRFTISRDNSKNTLYLQMNSLRDEDTAVYYCARRFTMLRGWIIEDYGMDVWGQGTTVTVSS
VL: not shown
notes: also called AB0622-001
In the case of B10, the “fold improvement in BAFF-R binding” value in assay [1] was greater than 3 fold. In addition, the “KHYG-A-CD16Av mediated Cytolysis” value in assay [2] is 0.09 nM. Besides, the EC50 in assay [3] came out at 3.45 nM.

B11: AB0898 (bispecific antibody, V domains shown)
VH: EVQLVQSGGGVVQPGRSLRLSCAASGFTFSSSGMHWVRQAPGKCLEWVAVIWYDASNKYYGDSVKGRFTISRDNSKNTLYLQMNSLRDEDTAVYYCARRFTRLRGWYIEDYGLDVWGQGTTVTVSS
VL: not shown
The molecule B11 gave an EC50 in assay [8] of 4.3 nM.
